# Experimental data: patent publication US20200164026A1, “Intranasal Delivery of Cell Permeant Therapeutics” (The Trustees of Columbia University in the City of New York, priority 2010, published 2020)
# T1: Pen1-C6DN (Penetratin1 disulfide-linked to caspase-6 catalytic dominant negative, C285A)
# T1 chain 1: RQIKIWFQNRRMKWKK
# T1 chain 2: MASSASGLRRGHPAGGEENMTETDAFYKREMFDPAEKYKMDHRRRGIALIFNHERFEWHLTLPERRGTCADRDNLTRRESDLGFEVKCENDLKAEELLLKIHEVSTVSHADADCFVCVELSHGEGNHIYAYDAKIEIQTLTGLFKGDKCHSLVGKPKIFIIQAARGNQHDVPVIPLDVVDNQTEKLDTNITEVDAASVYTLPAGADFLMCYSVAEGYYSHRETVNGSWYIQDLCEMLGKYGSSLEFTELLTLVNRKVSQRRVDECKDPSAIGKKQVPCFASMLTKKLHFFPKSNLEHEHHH
# B1: caspase-6 (mouse, endogenous in brain) (protein)
# chain: MTETDGFYKSREVFDPAEQYKMDHKRRGVALIFNHERFFWHLTLPERRGTNADRDNLTRRFSDLGFEVKCFNDLRAEELLLKIHEVSTSSHIDADCFICVFLSHGEGNHVYAYDAKIEIQTLTGLFKGDKCQSLVGKPKIFIIQACRGSQHDVPVVPLDMVDHQTDKLDNVTQVDAASVYTLPAGADFLMCYSVAEGYYSHRETVNGSWYIQDLCEMLARYGSSLEFTELLTLVNRKVSQRRVDFCKDPDAIGKKQVPCFASMLTKKLHFCPKPSK
# B2: Pen1-C6DN: Caspase-6 catalytic dominant negative (C6DN; C285A) disulfide-linked to Penetratin1 (SEQ ID NO: 11) (conjugate)
# peptide: RQIKIWFQNRRMKWKK
# chain: T1 chain 2
# Columns and labels:
# [1] = tested on: Pen1-XBIR3 (Penetratin1 disulfide-linked to the BIR3 domain from XIAP)
# Chain of Pen1-XBIR3 (Penetratin1 disulfide-linked to the BIR3 domain from XIAP) (chain, as listed by the source): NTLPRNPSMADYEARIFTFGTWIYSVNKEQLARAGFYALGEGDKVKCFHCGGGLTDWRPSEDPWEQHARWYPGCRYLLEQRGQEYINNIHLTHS
# [2] = molecular target: T1, Pen1-C6DN (Penetratin1 disulfide-linked …)
# [3] = tested on: caspase-cleaved tau (caspase-6 substrate); experiment: Intranasal Pen1-C6DN prior to 1 hr tMCAo in mice; western blot for caspase-cleaved tau (anti-TauC3); type: in vivo, mouse; conditions: intranasal 1 hr prior to 1 hr tMCAo, 24 hpr
# From the text: To determine if a direct blockade of caspase-6 would provide protection from ischemia, a Pen1-linked caspase-6 domininat negative (Pen1-C6DN) construct was utilized. Pen1-C6DN was delivered by intransasal bolus to mice 1 hr prior to tMCAo and mice were then subjected to 1 hrMCAo followed by reperfusion. Animals were sacrificed at 24 hpr and core and penumbra regions of brain prepared for Western blotting. As depicted in FIG. 7, protein lysate from the core and penumbra regions of the stroke infarct (24 hpr) was isolated. Ipsilateral (stroked) hemispheres contained abundant caspase-cleaved tau when only treated with vehicle.
# Intranasal Pen1-C6DN Prevents Cleavage of Caspase-6 Substrates. Caspase-6 catalytic dominant negative (C6DN; C285A) was isolated and purified as described previously. Denault, J. B. and G. S. Salvesen, Expression, purification, and characterization of caspases. Curr Protoc Protein Sci, 2003. Chapter 21: p. Unit 21 13. Pen1 (Q-Biogene) was mixed at an equimolar ratio with purified C6DN and incubated overnight at 37° C. to generate disulfide-linked Pen1-C6DN. Linkage was assessed by 20% SDS-PAGE and Western blotting with anti-His and anti-Caspase-6 antibodies.
# Male C57BL/6 mice (2-3 months old; ≥25 g) were anesthetized using isoflurane (2%) delivered via an anesthesia mask. […]
molecule,measurement,setting,value
"caspase-9 (rat, endogenous in brain or hippocampal neurons)","C1-C6 processes (count of cleaved caspase-6 positive processes), intranasal delivery, 12 hpr",[1],"Vehicle-12 hpr: 144.0±28.50, n=3 vs. Pen1-XBIR3-12 hpr: 102.7±23.15, n=3; p=0.3233"
same,"C1-C6 processes (count of cleaved caspase-6 positive processes), intranasal delivery, 24 hpr",[1],"Vehicle-24 hpr: 109.7±12.73, n=3 vs. Pen1-XBIR3-24 hpr: 57.33±10.04, n=3; p=0.032"
same,immunostaining for caspase-9 and cleaved caspase-6 at 24 hpr after convection enhanced delivery to rat striatum,[1],Pent-XBIR3 inhibited appearance of c1-C6 and caspase-9 in cell bodies and processes
same,immunostaining for cleaved caspase-6 and caspase-9 at 24 hpr (FIG. 3D),[1],"The caspase-9 specific inhibitor, Pen1-XBIR3, blocks the increase in caspase-9 and the induction of c1-C6 observed at 24 hpr"
B1,"caspase-cleaved tau in mouse brain lysate at 24 hpr (western blot, anti-TauC3)",[2],Pen1-C6DN reduced cleavage of caspase-cleaved tau
B2,caspase-cleaved tau in core and penumbra lysate,[3],reduced cleavage of caspase-cleaved tau
